The record followed here is the nanobody polyreactivity screen of Harvey et al. (2022).

A short description of this data set: yeast display, Sf9 membrane polyspecificity reagent, FACS + sequencing; frameworks hold sequencing errors. The essentials: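 Nanobodies came from a synthetic yeast display library in Saccharomyces cerevisiae BJ5465, induced with galactose for 36–48 hours and stained for 1 hour at 4 °C with 10% biotinylated, detergent-solubilized Sf9 membrane reagent. Cells were enriched on streptavidin microbeads and then FACS-sorted, with low and high (top ~1%) gates set on anti-HA fluorescence for expression and streptavidin fluorescence for reagent binding. Each polyreactivity label reflects the gate a clone came from. Genes were amplified by colony PCR, sequenced by MiSeq 2 × 250 and filtered by CDR length.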
In the case of “QLQLVESGGGLVQAGGSLRLSCAASGSTFALYAMGWYRQAPGKERELVAAITSDGSTKYADSVKGRFTISRDNAKNTVYLQMNSLKPEDTAVYYCNTEYYYPGIPYDYWGQGTQVTVSS”, the “polyreactivity (PSR sort gate)” value was “high polyreactivity”.

For the sequence “QVQLVESGGGLVQAGGSLRLSCAASGFTFVYYAMGWYRQAPGKERELVAAISRGGSTYYADSVKGRFTISRDNAKNTVYLQMNSLKPEDTAVYYCNAKKSGHYVSYPAYDYWGQGTQVTVSS”, the “polyreactivity (PSR sort gate)” value is on record as “low polyreactivity”.

On to “QVQRVESGGGLVQAGGSLRLSCAASGSNFRVYVMGWYRQAPGKERELVARIRYRSGRTNYADSVKGRFTISRDNAKNTVYLQMNSLKPEDTAVYYCAARTPAYARTYGYWGQGTQVTVSS”, for which the “polyreactivity (PSR sort gate)” value is recorded as “high polyreactivity”.

As for “QFQLVESGGGFVQAGGSLRLSCAASGRTFYPYAMGLYRQAPGKERELVAAISSSGGSTYYADSVKGRFTISRDNAKNTVYLQMNSLKPDDTAVYYCAAVASKYKYTGGMDYWGQGTQVTVSS”, the “polyreactivity (PSR sort gate)” value was “high polyreactivity”.

For the sequence “QVQLVESGGGLVQAGGSLRLSSAASGGIFRYYAMGLYRQAPGKERELVAAITSSGTSTYYADSVKGRFTISRDYAKNTVYLQMNSLKPEDTAVYYCARVVRPTDGDYWGLGTQVTVSS”, the “polyreactivity (PSR sort gate)” value is reported as “high polyreactivity”.

Consider “QVQLVESGGGLVQAGGSLRLSCAASGSIFGGNAMGWYRQAPGKETELVATITVRGGSTYYADSVKGRFRISRDNAKNSVYLQMNSLKPEDTAVYYCATEEVSRYRYGYWGQGTQVTVSS”, for which the “polyreactivity (PSR sort gate)” value was “low polyreactivity”.

Take “QVQLVETGGGLVQAGGSLRLSCAASGRTFTGNAMGWYRQEPGKERELVADISSDGSTNYADSVKGRFTISRDNAKNTVYLQMNSLKPEDTAVYYCAADPFWTYYIDYDYWGQGTQVTVSS”: the “polyreactivity (PSR sort gate)” value is reported as “low polyreactivity”.

Consider “QVQLVESGGGLVQAGGSLRLSCAASGSIFDYNPMGWYTQAPGKERELVADITSGGSTYYADSVKGRFTISRDNAKNTVYLQMNSLKPEDTAVYYCNADDAVEYSYGGGTEFYYWGQGTQVSVSS”, for which the “polyreactivity (PSR sort gate)” value is given as “low polyreactivity”.

Regarding “QVQLVESGGGLVQAGGSLRLSCAASGIIFYVYALGWYRQAPGKERELVAAISYTSSTYADSVKGLFTISRDNAKNTVYLQMNSLKPEDTAVYYCNTDYSDGYPAFDFWGQGTQVTVSS”, the “polyreactivity (PSR sort gate)” value is given as “low polyreactivity”.

Take “QVQLVESGGGLVQAGGSLRLSCAASGSTFVTNAMVWYRQAPGKERELVAAIDYDSGSTYYADSVKGRFTISRDNAKNTVYLQMNSLIPEDTAVYYCNADEQSEEEWEYYYSYDYWGQGTQVTVSS”: the “polyreactivity (PSR sort gate)” value is given as “high polyreactivity”.

Turning to “QVQLVESGGGLVQAGGSLRLSCAASGSTFEYYAMGWYRQAPGKERELVAAISRTGGRTYYADSVKGRFTISRDNAKNTVYLQMNSLKPEDTAVYYCNAVTRIGGGDYDDWGQGTQVTVSS”, the “polyreactivity (PSR sort gate)” value is reported as “low polyreactivity”.

“QVQLVESGGGLVQAGGSLRLSCADSGLIFYYYAMGWYRHAPGKERELVAAISYNGGTTYYADSVKGRFTISRDNAKNTVYLQMNSLNPEDTAVYYCAAEQLVSGYDYWGQGTQVTVSS”: the “polyreactivity (PSR sort gate)” value is recorded as “low polyreactivity”.

“QVQLVESGGALVQAGGSLRLSCAASGRIFGVNAMGWYRQAPGKERELVAAITSRGGSTYYADSVKGRFTISRDNAKNTVYLQMHSLTPEDTEVYYCRGWRYFTDKTYDYWGQGTQVTVSS”: the “polyreactivity (PSR sort gate)” value is given as “high polyreactivity”.

Regarding “QVQLQESGGGLAQAVGSLRLSCAASGNIFDPDIMGSYRQAPAKERELVGSITHGGSTNYVDSVKGRFTISRDNATNTVHLQMNRLKPVDTGVYYCAAIGYPDIPSYFDYDSDFFNWGHGTQVTVSS”, the “polyreactivity (PSR sort gate)” value is on record as “high polyreactivity”.

In the case of “QVQLVESGGGLVQAGGSLRLSCAASGSTFSYYAMGWYRQAPVKERELVAAITSGGGRTYYADSVKGRFTISRDNAKNTVYLQMNSLKPEDTAVYYCNALSTLYNGYDYWGQGTQVTVSS”, the “polyreactivity (PSR sort gate)” value was “high polyreactivity”.

For the sequence “QVQLVESVGGLVQAGGRLRLTCAASGFIFTHYAMVWYRQAPGKERELVAAISWNGGRTYYADSVKGRFTISRDNANITVYLQMNSLKPEDTAVYYCAARIYLSKSFNFWGQGTQVTVSS”, the “polyreactivity (PSR sort gate)” value is on record as “high polyreactivity”.

Consider “QVQLVESGGGLVQAGGSLRLSCAASGLTFHTNTMGWYRQAPGKERELVAAITWRDDSTYYADSVKGRFTISRDYAMNTVYLQMNSLKPEDTAVFYCAARGGAYLWYHYDYWGQGTQVTVSS”, for which the “polyreactivity (PSR sort gate)” value is given as “low polyreactivity”.

Turning to “QVQLVESGGGLVQAGGSLRLSCAASGSTFAVYSMGWYTQAPGKERELVADSSYSGGSTYYADSVKGRFTISRDNAKNTVYLQMNSLIPEDTAVYYCAADWYDWLSTYDDWGQGTQVTVSS”, the “polyreactivity (PSR sort gate)” value is on record as “low polyreactivity”.

As for “QVQLVESGGGLVQAGGSLRLSCAASGSTFDSYAMGWYRQAPGKEGELVAAITGGGDTNYADSVKGRFTISRDNAKNTVYLQMNSLKPEDTAVYYCAAYQRRGNYQMDLWGQGTQVTVSS”, the “polyreactivity (PSR sort gate)” value is given as “low polyreactivity”.

“QVQLVESGGGLVQARGSLRLSCASSGSTFGGYAMGWYRQAPGKERELVPAITRSGGSTYYADSVKGRFTISRDNGKNTVYLQMNSLKPEDTAVYYCAARVPRGDRPGYHYAYYYWGQGTQVTVSS”: the “polyreactivity (PSR sort gate)” value was “high polyreactivity”.

For “QVQLVESGGGLVQAGGSLRLSCAASGRTFRWYAMGWYRQAPGKESELVASISRGGSTSYADSVKGRFTISRDNAKNTVYLQMNSLKPEDTAVYYCAAGGFARTISYYWGQGTQVTVSS”, the “polyreactivity (PSR sort gate)” value was “high polyreactivity”.

Consider “QVQLVESGGGLVQAGGSLRLSCAASGSIFGGNAMGWYRPAPGTVRELVAAITSSGGSTYYADSVKGRFTMSRDNAKNTVYLQMNSLNPEDTAVYYSNKAYPGRTYDYWGQGTQVTVSS”, for which the “polyreactivity (PSR sort gate)” value is listed as “high polyreactivity”.

In the case of “QVQLVESGGGLVQAGGSLRLSFAASGSTFYVYPMGWYRQAPGKERELVAAITDSGGSTYADSVKGRFTISRDNAMNTVYLQFNSLKPEASAVYADSTFYWYYYYWGQGPQVTVSS”, the “polyreactivity (PSR sort gate)” value was “low polyreactivity”.

Consider “QVQLVESGGGLVQAGGSLRLICAASGSTIVYYAMAWYRQAPGKERELVAAISRVGSTNYADSVKGRFTISRDNAKNTVYLQMNSLKPEDTAVYYCNAERSRRYSGWVNYAPLNYWGQGTQVTVSS”, for which the “polyreactivity (PSR sort gate)” value is “low polyreactivity”.

Regarding “QVQLVESGGGLVQAGGSLRLSCAASGSTFNTYAMGWYRQAPGKERELVASIRLRGGSTYYADSVKGRFTISRDNAKNTVYLQMNSLKPEDTAVYYCAARTWPWVLGGTQDDYWGQGTQVTVSS”, the “polyreactivity (PSR sort gate)” value is on record as “low polyreactivity”.

Take “QVQLVESGGGLVQAGGSLRLSCAASGRTIDYNGRGSYRQAPGKERELVAVISSSGGSPFYADSVKGRFTISRDNAKNTVYLQMNSLKPEDTAVYYCAADFIVAYTLHGSYDYWGQGTQVTVSS”: the “polyreactivity (PSR sort gate)” value is reported as “low polyreactivity”.

As to “QVQLVESGGGLVQAGGSLRLSCAASGIIFARNGMGWYRPAPGKERELVAAISSGGRKYYADSVKGRFTISRDNAKNTVYLQMNSLKPEDTAVYYCNALGWYLRGDYWGQGTQVTVSS”, the “polyreactivity (PSR sort gate)” value is reported as “high polyreactivity”.

Regarding “HVQLVESGGGLVQAGGSLRLSCAASGRSLSDYAMGWYRQAPGKERELVATITSGDSTNYADSVKGRFTISRDNEKNTVYLQMNSLKPEDTEVYYCNADRFADYDYWGQGTQVTVSS”, the “polyreactivity (PSR sort gate)” value is “low polyreactivity”.

Regarding “QVQLVESGGGLVQAGGSLRLSCAASGRTFYNNAMGWYRPAPGKERELVAVISGRGGSTYYADSVKGRFTISRDNAKNTVYLQMNSLKPEDTAVYYCAAGYTRPWRFTYYYWGQGTQVTVSS”, the “polyreactivity (PSR sort gate)” value was “high polyreactivity”.

Turning to “QVHLVESGGGLLQAGGSLRLSCAASGRTFGHNAMGWNRQAPGKERELVAAISSGGNTYYADSVKGRFTISRDNAKNTVYLQMNSLKPEDTAVYYCAAVTVIGGEYDYWGQGTQVTVSS”, the “polyreactivity (PSR sort gate)” value is on record as “low polyreactivity”.
